Residue numbers refer to the chain shown, from its start. Names may count otherwise.
T1: His6-Nab2 (S. cerevisiae, UniProt P32505 1-525)
T1 sequence (looked up): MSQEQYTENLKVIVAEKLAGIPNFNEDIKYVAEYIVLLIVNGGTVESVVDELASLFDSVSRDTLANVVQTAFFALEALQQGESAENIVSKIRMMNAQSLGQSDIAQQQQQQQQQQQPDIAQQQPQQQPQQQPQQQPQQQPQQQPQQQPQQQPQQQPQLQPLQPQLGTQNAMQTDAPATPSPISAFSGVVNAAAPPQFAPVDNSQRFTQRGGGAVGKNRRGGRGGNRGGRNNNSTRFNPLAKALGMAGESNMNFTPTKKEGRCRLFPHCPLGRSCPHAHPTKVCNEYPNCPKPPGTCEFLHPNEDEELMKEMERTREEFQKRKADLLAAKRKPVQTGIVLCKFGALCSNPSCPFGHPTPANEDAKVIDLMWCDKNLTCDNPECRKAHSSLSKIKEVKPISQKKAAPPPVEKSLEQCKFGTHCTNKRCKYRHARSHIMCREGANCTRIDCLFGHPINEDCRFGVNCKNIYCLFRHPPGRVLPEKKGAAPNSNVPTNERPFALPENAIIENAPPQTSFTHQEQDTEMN

B1: GST-Nab2-N-WT (residues 1–97) (domain or fragment, S. cerevisiae, UniProt P32505 1-97, looked up)
chain: MSQEQYTENLKVIVAEKLAGIPNFNEDIKYVAEYIVLLIVNGGTVESVVDELASLFDSVSRDTLANVVQTAFFALEALQQGESAENIVSKIRMMNAQ
B2: GST-Nab2-N-F73W (residues 1–97) (domain or fragment, S. cerevisiae, UniProt P32505 1-97, looked up)
chain: B1 chain with F73W
B3: GST-Nab2-N-F72D (residues 1–97) (domain or fragment, S. cerevisiae, UniProt P32505 1-97, looked up)
chain: B1 chain with F72D
B4: GST-CT-Mlp1 (residues 1490–1875) (domain or fragment, S. cerevisiae, UniProt Q02455 1490-1875, looked up)
chain: AQERLNQPSNINMEEIKKKWESEHEQEVSQKIREAEEALKKRIRLPTEEKINKIIERKKEELEKEFEEKVEERIKSMEQSGEIDVVLRKQLEAKVQEKQKELENEYNKKLQEELKDVPHSSHISDDERDKLRAEIESRLREEFNNELQAIKKKSFDEGKQQAMMKTTLLERKLAKMESQLSETKQSAESPPKSVNNVQNPLLGLPRKIEENSNSPFNPLLSGEKLLKLNSKSSSGGFNPFTSPSPNKHLQNDNDKRESLANKTDPPTHLEPSFNIPASRGLISSSSTLSTDTNDEELTSNNPAQKDSSNRNVQSEEDTEKKKEGEPVKRGEAIEEQTKSNKRPIDEVGELKNDEDDTTENINESKKIKTEDEEEKETDKVNDENSI

Key:
[1] = target: His6-S-Tag-Mlp1-NBD (residues 1586–1768) (S. cerevisiae, UniProt Q02455 1586-1768); assay: ELISA
His6-Nab2 = target: T1, His6-Nab2; assay: pull-down

| Binder | Kd [1] [nM] | binding result (His6-Nab2) |
| --- | --- | --- |
| B1 | 1260 | – |
| B2 | 830 | – |
| B3 | 2310 | – |
| B4 | – | binds |
